According to article doi:10.1101/2025.11.18.686377:

Target: NGF^painless (NGF variant bearing R100E+P61S mutations) (human)
Assay: native MS

In the case of “NGF^painless (NGF variant bearing R100E+P61S mutations) (ligand)”, the stoichiometry N is reported as 2.
